According to PMC11853100 (2025):

Biological target: T1, Pneumolysin (Ply) (Streptococcus pneumoniae, UniProt Q04IN8)
T1 chain: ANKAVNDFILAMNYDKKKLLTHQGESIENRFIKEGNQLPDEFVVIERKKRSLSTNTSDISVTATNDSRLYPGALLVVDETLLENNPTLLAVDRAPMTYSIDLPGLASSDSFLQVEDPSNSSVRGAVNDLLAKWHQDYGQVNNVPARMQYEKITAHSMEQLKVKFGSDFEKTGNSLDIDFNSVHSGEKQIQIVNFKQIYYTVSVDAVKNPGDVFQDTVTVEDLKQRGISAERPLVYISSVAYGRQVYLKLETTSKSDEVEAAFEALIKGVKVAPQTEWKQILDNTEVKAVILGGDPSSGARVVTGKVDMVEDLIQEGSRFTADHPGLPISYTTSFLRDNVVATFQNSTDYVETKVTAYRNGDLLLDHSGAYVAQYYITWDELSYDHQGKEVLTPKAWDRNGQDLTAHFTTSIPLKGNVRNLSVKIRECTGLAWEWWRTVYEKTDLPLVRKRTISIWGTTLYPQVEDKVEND
Assay: ITC; given as Ka

B1: SpnPrsA (protein)
chain: CSKGSEGADLISMKGDVITEHQFYEQVKNNPSAQQVLLNMTIQKVFEKQYGSELDDKEVDDTIAEEKKQYGENYQRVLSQAGMTLETRKAQIRTSKLVELAVKKVAEAELTDEAYKKAFDEYTPDVTAQIIRLNNEDKAKEVLEKAKAEGADFAQLAKDNSTDEKTKENGGEITFDSASTEVPEQVKKAAFALDVDGVSDVITATGTQAYSSQYYIVKLTKKTEKSSNIDDYKEKLKTVILTQKQNDSTFVQSIIGKELQAANIKVKDQAFQNIFTQYIGGGDSSSSSSTSNE
  Kd: 0.119 µM
